B1: Caveolin-3 (Mus musculus), P51637 (parent)
chain: MMTEEHTDLEARIIKDIHCKEIDLVNRDPKNINEDIVKVDFEDVIAEPEGTYSFDGVWKVSFTTFTVSKYWCYRLLSTLLGVPLALLWGFLFACISFCHIWAVVPCIKSYLIEIQCISHIYSLCIRTFCNPLFAALGQVCSNIKVVLRREG
partner: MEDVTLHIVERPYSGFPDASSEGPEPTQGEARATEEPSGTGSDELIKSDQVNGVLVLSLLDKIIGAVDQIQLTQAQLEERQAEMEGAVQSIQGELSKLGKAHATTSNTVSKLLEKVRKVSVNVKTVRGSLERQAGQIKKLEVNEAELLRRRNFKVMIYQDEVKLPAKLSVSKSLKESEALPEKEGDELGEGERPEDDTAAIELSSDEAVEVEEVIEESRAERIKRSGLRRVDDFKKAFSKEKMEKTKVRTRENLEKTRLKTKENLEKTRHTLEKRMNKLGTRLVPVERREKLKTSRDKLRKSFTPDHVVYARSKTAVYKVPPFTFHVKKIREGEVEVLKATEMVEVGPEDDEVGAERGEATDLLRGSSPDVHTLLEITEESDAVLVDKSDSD

Variants of: B1
Conditions: with cavn1_mouse Cavin1, O54724

With MMTEEHTDLEARIIKDIHCKEIDLVNRDPKNINEDIVKVDFEDVIAEPEGTYSFDGVWKVSFTTFTVSKYWCYRLLSTLLGVPLALLWGFLFACISFCHIWAVVLCIKSYLIEIQCISHIYSLCIRTFCNPLFAALGQVCSNIKVVLRREG as the variant, how does the “effect of a mutation on the interaction” value read?
Its value is “decreasing interaction”.
